One block for each binder: values may come before it.
Key:
P-selectin/Fc [1] = target: T1, P-selectin/Fc (human, UniProt P16109 42-771); assay: BLI; rhVim or rhRod (50 μg/mL) immobilised by amine coupling on AR2G sensors; P-sel/Fc or PSGL-1/Fc as analyte, 0–1,000 nM; DPBS; steady state analysis; conditions: both partners purified
T1 construct: P-selectin; Labelled with IR800CW dye for the SPOT-Vim array; No catalogue number printed; also called P-sel/Fc; P-sel/Fc-IR800; source: bought: R & D Systems
T1 sequence (looked up): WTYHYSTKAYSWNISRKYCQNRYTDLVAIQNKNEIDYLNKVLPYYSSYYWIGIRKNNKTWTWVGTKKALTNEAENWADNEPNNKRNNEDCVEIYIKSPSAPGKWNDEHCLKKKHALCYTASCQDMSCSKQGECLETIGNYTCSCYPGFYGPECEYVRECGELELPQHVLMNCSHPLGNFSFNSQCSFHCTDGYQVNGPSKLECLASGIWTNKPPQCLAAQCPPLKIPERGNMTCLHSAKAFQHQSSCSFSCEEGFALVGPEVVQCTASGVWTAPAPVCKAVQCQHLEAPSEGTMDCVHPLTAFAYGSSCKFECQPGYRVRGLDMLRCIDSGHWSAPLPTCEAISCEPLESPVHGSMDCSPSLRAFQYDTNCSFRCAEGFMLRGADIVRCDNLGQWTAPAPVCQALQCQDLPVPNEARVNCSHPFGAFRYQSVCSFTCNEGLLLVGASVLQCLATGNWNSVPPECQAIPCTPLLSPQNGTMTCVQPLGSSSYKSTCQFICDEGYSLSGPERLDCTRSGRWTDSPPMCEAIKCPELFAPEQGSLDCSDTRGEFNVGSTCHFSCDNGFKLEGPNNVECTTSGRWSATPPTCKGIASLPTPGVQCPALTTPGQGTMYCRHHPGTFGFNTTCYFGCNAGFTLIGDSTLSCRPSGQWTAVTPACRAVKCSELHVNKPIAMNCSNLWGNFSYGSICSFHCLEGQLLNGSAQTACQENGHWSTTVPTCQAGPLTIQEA

P-selectin/Fc [2] = target: T1, P-selectin/Fc; assay: BLI; separate set of experiments: room temperature aliquot of rhRod (1,000 nM) on immobilized P-sel/Fc, performed as above; DPBS; conditions: both partners purified
P-selectin/Fc [3] = target: T1, P-selectin/Fc; assay: BLI; blocking: P-sel/Fc on AR2G sensors placed into rhRod 0–1,000 nM (association, then dissociation in DPBS), then into 500 nM PSGL-1/Fc (Sino Biological); PSGL-1/Fc response against rhRod concentration, non-linear regression; in duplicate; conditions: both partners purified
[4] = target: the molecule itself; assay: SDS-PAGE in non-reducing and reducing conditions, Coomassie stain; purified protein; non-reduced against reduced
P-selectin/Fc [5] = target: T1, P-selectin/Fc; assay: BLI; P-sel/Fc or PSGL-1/Fc (10 μg/mL) immobilised on anti-human IgG Fc (AHC) sensors; rhVim or rhRod as analyte, 0–1,000 nM; DPBS; steady state analysis; conditions: both partners purified
P-selectin/Fc [6] = target: T1, P-selectin/Fc; assay: BLI; P-sel/Fc immobilised on AR2G sensors; PSGL-1/Fc (Sino Biological) as analyte, 0–1,000 nM; DPBS; in duplicate; conditions: both partners purified

Kd (P-selectin/Fc [1]): 41 ± 6 nM
Kd (P-selectin/Fc [2]): 280 ± 61 nM
IC50 (P-selectin/Fc [3]): 20 nM
Kd (P-selectin/Fc [5]): 10 ± 0.6 nM
B1: recombinant human rod domain of vimentin (domain or fragment)
chain: not shown
notes: vimentin, human, rod domain, aa residues 96-407 (base pairs 717-1,652 of NM_00380.3 as printed); 38.2 kDa used for concentration; Labelled with IR800CW dye for the SPOT-Psel array; Dimerized in non-reducing SDS-PAGE. ΔrhRod is the same protein after 10 minutes in boiling water; also called rhRod; rod domain of recombinant vimentin
binding result [4]: binds

Kd (P-selectin/Fc [6]): 240 ± 67 nM
B2: recombinant human PSGL-1/Fc (Sino Biological Inc.) (Fc fusion, UniProt Q14242 42-320, looked up)
chain: QATEYEYLDYDFLPETEPPEMLRNSTDTTPLTGPGTPESTTVEPAARRSTGLDAGGAVTELTTELANMGNLSTDSAAMEIQTTQPAATEAQTTQPVPTEAQTTPLAATEAQTTRLTATEAQTTPLAATEAQTTPPAATEAQTTQPTGLEAQTTAPAAMEAQTTAPAAMEAQTTPPAAMEAQTTQTTAMEAQTTAPEATEAQTTQPTATEAQTTPLAAMEALSTEPSATEALSMEPTTKRGLFIPFSVSSVTHKGIPMAASNLSVNYPVGAPDHISVKQC
notes: P-selectin glycoprotein ligand-1, human; No catalogue number printed; source: bought: Sino Biological Inc

Source: article PMC7553327, “The vimentin rod domain blocks P-selectin-P-selectin glycoprotein ligand 1 interactions to attenuate leukocyte adhesion to inflamed endothelium” (PLoS ONE, 2020)
